# Experiments:
# [1] = biological target: the molecule itself; assay: native gel or EMSA; Native PAGE (Mini-PROTEAN TGX precast gel) of SEC peak 2 (13.4 mL)
# [2] = biological target: the molecule itself; assay: negative-stain electron microscopy; SEC peak 1 (dodecamer fraction), 3% uranyl acetate; 15000 particles, 2D class averages; 3D map with no symmetry imposed, 25 Å; two hexamers in a single LMNG micelle
protein,measurement,setting,value
"Full-length Aquifex aeolicus FtsH (enzyme, UniProt O67077 1-634, looked up, The protomer is the molecule; The construct came from U. Baumann; also called AaFtsH; LMNG-AaFtsH; source: E. coli, overexpressed (pET22a); extracted from purified membranes with LMNG; purified (Ni-NTA/HisTrap, SEC Superose 6)) MNALKNFFIWAIIIGAAIVAFNLFEGKREFTTKVSLNEVVKLVEEGKVSYAEVRGNTAIIQTKDGQKLEVTLPPNTNLVDKMVEKGVRVEVANPEPPGGWLVNVFLSWLPILFFIGIWIFLLRQMSGGGNVNRAFNFGKSRAKVYIEEKPKVTFKDVAGIEEVKEEVKEIIEYLKDPVKFQKLGGRPPKGVLLYGEPGVGKTLLAKAIAGEAHVPFISVSGSDFVEMFVGVGAARVRDLFETAKKHAPCIIFIDEIDAVGRARGAIPVGGGHDEREQTLNQLLVEMDGFDTSDGIIVIAATNRPDILDPALLRPGRFDRQIFIPKPDVRGRYEILKVHARNKKLAKDVDLEFVARATPGFTGADLENLLNEAALLAARKGKEEITMEEIEEALDRITMGLERKGMTISPKEKEKIAIHEAGHALMGLVSDDDDKVHKISIIPRGMALGVTQQLPIEDKHIYDKKDLYNKILVLLGGRAAEEVFFGKDGITTGAENDLQRATDLAYRMVSMWGMSDKVGPIAIRRVANPFLGGMTTAVDTSPDLLREIDEEVKRIITEQYEKAKAIVEEYKEPLKAVVKKLLEKETITCEEFVEVFKLYGIELKDKCKKEELFDKDRKSEENKELKSEEVKEEVV",stoichiometry N,[1],6
same,stoichiometry N,[2],12

# Source: paper doi:10.1101/209445, “Large conformational changes in FtsH create an opening for substrate entry” (bioRxiv, 2017)
